Experimental data reported in patent US20150139990A1.

How the values were obtained:
[1] = molecular target: human CD81 on CD81-expressing cells (Jurkat E6.1, human PBMC, Ramos) (human) (UniProt P60033); test: flow cytometry, Ramos cells, 0.1 µg/mL
[2] = molecular target: human CD81 on CD81-expressing cells (Jurkat E6.1, human PBMC, Ramos) (human) (UniProt P60033); test: flow cytometry, Jurkat cells, 10 µg/mL
[3] = molecular target: human CD81 on CD81-expressing cells (Jurkat E6.1, human PBMC, Ramos) (human) (UniProt P60033); test: flow cytometry, Jurkat cells, 1 µg/mL
[4] = molecular target: human CD81 on CD81-expressing cells (Jurkat E6.1, human PBMC, Ramos) (human) (UniProt P60033); test: flow cytometry, Jurkat cells, 0.01 µg/mL
[5] = molecular target: human CD81 on CD81-expressing cells (Jurkat E6.1, human PBMC, Ramos) (human) (UniProt P60033); test: flow cytometry, Jurkat cells, 0.1 µg/mL
[6] = molecular target: human CD81 on CD81-expressing cells (Jurkat E6.1, human PBMC, Ramos) (human) (UniProt P60033); test: flow cytometry, Ramos cells, 0.01 µg/mL
[7] = molecular target: human CD81 on CD81-expressing cells (Jurkat E6.1, human PBMC, Ramos) (human) (UniProt P60033); test: flow cytometry, Ramos cells, 1 µg/mL
[8] = molecular target: human CD81 on CD81-expressing cells (Jurkat E6.1, human PBMC, Ramos) (human) (UniProt P60033); test: flow cytometry, Ramos cells, 10 µg/mL
[9] = molecular target: human CD81 on CD81-expressing cells (Jurkat E6.1, human PBMC, Ramos) (human) (UniProt P60033); test: flow cytometry, Jurkat E6.1 cells
[10] = molecular target: human CD81 on CD81-expressing cells (Jurkat E6.1, human PBMC, Ramos) (human) (UniProt P60033); test: flow cytometry, human PBMC

human CD81 on CD81-expressing cells (Jurkat E6.1, human PBMC, Ramos) (human), sequence (P60033 whole entry): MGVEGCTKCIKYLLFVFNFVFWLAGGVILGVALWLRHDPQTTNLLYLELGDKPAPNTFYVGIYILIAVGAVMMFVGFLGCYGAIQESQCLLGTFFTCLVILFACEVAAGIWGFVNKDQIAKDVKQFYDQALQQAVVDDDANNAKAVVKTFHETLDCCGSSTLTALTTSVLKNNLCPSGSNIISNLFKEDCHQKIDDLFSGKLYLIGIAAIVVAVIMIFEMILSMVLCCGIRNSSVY

| geometric mean FL2 [1] | geometric mean FL2 [2] | geometric mean FL2 [3] | geometric mean FL2 [4] | geometric mean FL2 [5] | geometric mean FL2 [6] | geometric mean FL2 [7] | geometric mean FL2 [8] | binding ratio to cells (%) [9] | binding ratio to cells (%) [10] | Substance |
| --- | --- | --- | --- | --- | --- | --- | --- | --- | --- | --- |
| 4 | 8 | 4 | 4 | 4 | 4 | 5 | 8 | – | – | control human IgG (AbD Serotec) (antibody) |
| – | – | – | – | – | – | – | – | 1% | 1% | control human IgG4 (Acris) (antibody) |
